From the supplement of paper PMC7125110
± gives the standard error. Fewer inactive variants are shown than the library holds.

B1: glmS ribozyme (parent)
chain: AUAAAAGCGCCAGAACUACAGAAAUGUAGUUGACGAGGAGGAGGUUUAUCGAAUUUUCGGCGGAUGCCUCCAAA

Variants of: B1
Assay: self-cleavage kobs at 2500 uM GlcN6P; higher = faster cleavage; RNA array
Conditions: with glucosamine-6-phosphate
Summary of the method: (§1)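 The measurements used barcoded ribozyme variants on sequenced MiSeq chips, transcribed in situ by E. coli RNA polymerase and tracked at 37 °C with a hybridised Cy3 probe. Glucosamine-6-phosphate, 40 μM to 10 mM in HEPES/KCl/Mg(OAc)2 buffer, was flowed in while tiles were imaged over ~14 h. Baseline-normalised signals, also normalised to non-cleaving reference variants, gave per-tile medians that were fit to one- or two-exponential decays for kobs. kcat and KM resulted from weighted Michaelis–Menten fits across concentrations.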

Variant | self-cleavage kobs at 2500 uM GlcN6P
G37A U56C | 0.000299 ± 7.3e-05 s⁻¹
A39U A53U C70G | 0.0003 ± 7.6e-05 s⁻¹
U47G C50G | 4.35e-05 ± 1.2e-05 s⁻¹
U31G G38U A42U | < 1e-05 s⁻¹
C16A G40U U54C C71U | 8.78e-05 ± 1.5e-05 s⁻¹
A14U G38C A42U | < 1e-05 s⁻¹
G7C A12G A39U A42C U65C C71A | < 1e-05 s⁻¹
A33G G37A A52U | < 1e-05 s⁻¹
G13A G32U C67A | 3.47e-05 ± 1.3e-05 s⁻¹
G40A A53G C58A | 0.000125 ± 3.1e-05 s⁻¹
G7C G51U G59A | < 1e-05 s⁻¹
G13A C34U G43U | < 1e-05 s⁻¹
G32U A42C U54A | < 1e-05 s⁻¹
C11A A42U G43A | < 1e-05 s⁻¹
U30C G35C C50A C68A | < 1e-05 s⁻¹
C8G A33C U56C G63U | < 1e-05 s⁻¹
A53G C58U | 1.96e-05 ± 7.8e-06 s⁻¹
G40C G60A G66A | < 1e-05 s⁻¹
A39C A53U C67A | 6.25e-05 ± 1.6e-05 s⁻¹
G7C A15C G32U C58U C61U | < 1e-05 s⁻¹
A6G C16U C58U U65G | < 1e-05 s⁻¹
U45C G66C C71A | 6.04e-05 ± 2.8e-05 s⁻¹
C8U G9U G63U | < 1e-05 s⁻¹

Variant | self-cleavage kobs at 2500 uM GlcN6P
C34U C67G C68G | 0.000147 ± 3.9e-05 s⁻¹
G29C C34G G51U U54A U65A C70U | < 1e-05 s⁻¹
G9U U55C U56G C67U | < 1e-05 s⁻¹
A15U G51C C71U | < 1e-05 s⁻¹
A36U A42G G60U C70A | < 1e-05 s⁻¹
A14G A36C U54C | < 1e-05 s⁻¹
G66U C68U C71G | 5.06e-05 ± 2.1e-05 s⁻¹
C50G G60U C61G U65A | 9.15e-05 ± 3e-05 s⁻¹
G7U U57C C68G | < 1e-05 s⁻¹
A12U G40A U57A A64C | < 1e-05 s⁻¹
A36G G40U U45C C67U | < 1e-05 s⁻¹
U30C A39U U56G | 2.5e-05 ± 1.2e-05 s⁻¹
G7C U30A G44A | < 1e-05 s⁻¹
G38C U46C U49A | < 1e-05 s⁻¹
U46A C58A C61U | < 1e-05 s⁻¹
C11U A42G U54G G66A | 0.000265 ± 7.1e-05 s⁻¹
C16G G51U U57G | < 1e-05 s⁻¹
U31G G41U G62U G66U | < 1e-05 s⁻¹
A48G U55A C70A | 8.47e-05 ± 2.9e-05 s⁻¹
C16U C34A G41A C68U C71A | < 1e-05 s⁻¹
G9U G32C G41U U47G A52G U65G U69A | < 1e-05 s⁻¹
A39G G51A C68U | < 1e-05 s⁻¹
C10U G13A A52U U69G | 4.08e-05 ± 1.4e-05 s⁻¹

Variant | self-cleavage kobs at 2500 uM GlcN6P
U30A A33U C58G U69C | 0.000281 ± 8.6e-05 s⁻¹
A33G A36C G44C U45A C50U C71A | < 1e-05 s⁻¹
A15G A39U A64C | 0.000106 ± 2.7e-05 s⁻¹
C8U C11A G32A U56G | < 1e-05 s⁻¹
C16U C34A G59C U69A | < 1e-05 s⁻¹
G38C C58G G60U | < 1e-05 s⁻¹
C11U A39G A42G | 0.00125 ± 0.00043 s⁻¹
C8A U30C G62A | < 1e-05 s⁻¹
G29U G32U A42G C71A | 4.56e-05 ± 1.7e-05 s⁻¹
A12U G41A C68U | 3.9e-05 ± 1.6e-05 s⁻¹
G59U U65A C68U | < 1e-05 s⁻¹
G38A U54C G63U | < 1e-05 s⁻¹
C34G G41U A42U | < 1e-05 s⁻¹
C11G G35C U45G C67A | < 1e-05 s⁻¹
C34U G35A G38U G43A | < 1e-05 s⁻¹
U47A G62C C68G C71G | 0.000178 ± 4.9e-05 s⁻¹
U49C U56G G66C | < 1e-05 s⁻¹
U31G G32U U45A C71U | 0.000679 ± 0.00029 s⁻¹
A33C G38C A48U | < 1e-05 s⁻¹
C16U C50G U54A | 9.89e-05 ± 3.1e-05 s⁻¹
U30A G37C U65G G66U | < 1e-05 s⁻¹
A42U G59U C61G A64U C68A C70G | < 1e-05 s⁻¹
C16G G29A G37A U49G C50U | < 1e-05 s⁻¹

Variant | self-cleavage kobs at 2500 uM GlcN6P
G35C G38C A48U | < 1e-05 s⁻¹
U30C G41C U45G | < 1e-05 s⁻¹
G40A C61G G66C C67A | < 1e-05 s⁻¹
U30A G43U | < 1e-05 s⁻¹
C11G C67A | < 1e-05 s⁻¹
C50G C68G C70U | 7.27e-05 ± 1.1e-05 s⁻¹
A14C U54A U55A | 0.00221 ± 0.00054 s⁻¹
A6G A12G U54G A64U C70G | < 1e-05 s⁻¹
C50U A53U G62C | < 1e-05 s⁻¹
C11U G13U U30C G44A | < 1e-05 s⁻¹
A33G G37A G62C | < 1e-05 s⁻¹
G37A U45A A52U G60A | < 1e-05 s⁻¹
C10U C11A G40A | < 1e-05 s⁻¹
G37C G44C C67U | < 1e-05 s⁻¹
G37U A39U G43U C67G | < 1e-05 s⁻¹
G35C G40C C70U | < 1e-05 s⁻¹
A6C G29C G51U A53G | < 1e-05 s⁻¹
G7A G29U G59A G62U | < 1e-05 s⁻¹
G9U A36U C50G U54G U57A C67U | 0.000182 ± 3.6e-05 s⁻¹
U30C C58G C70U | 5.76e-05 ± 1.9e-05 s⁻¹
U30C U47A U57C | < 1e-05 s⁻¹
G38A C50G U69G | 6.3e-05 ± 1.7e-05 s⁻¹
A12G G29C G37A U46A | < 1e-05 s⁻¹

Variant | self-cleavage kobs at 2500 uM GlcN6P
C16A A39U C71A | 6.01e-05 ± 1.6e-05 s⁻¹
C8G G29U U31A | < 1e-05 s⁻¹
C34A A36G G38U U69G | 4.35e-05 ± 2e-05 s⁻¹
C11U A52G C71A | 5.37e-05 ± 2.4e-05 s⁻¹
A36G A48G U69C | < 1e-05 s⁻¹
G37C C50G U54G G63U A64U | 6.2e-05 ± 3e-05 s⁻¹
A48C U49A U55C | < 1e-05 s⁻¹
G32A A42U U46C | < 1e-05 s⁻¹
A12C C50U G60U C67U | < 1e-05 s⁻¹
C16G G66A U69G | 5.74e-05 ± 2.8e-05 s⁻¹
C10A A53U G60U | 8.13e-05 ± 1.6e-05 s⁻¹
A15G U30A C71U | 0.0164 ± 0.0034 s⁻¹
A36G U65C C68G | < 1e-05 s⁻¹
G43U G60A G66A C68G C70G | < 1e-05 s⁻¹
G7U G29C A42C | < 1e-05 s⁻¹
A12C G38A U49C A53C | < 1e-05 s⁻¹
C8U A33C C58G | < 1e-05 s⁻¹
U30G C67U C71G | 0.00027 ± 9.4e-05 s⁻¹
G32C G35A A42U | < 1e-05 s⁻¹
G7U G32C C34U | < 1e-05 s⁻¹
U30G A53U C58G | 0.000116 ± 3.9e-05 s⁻¹
A12C G35U A36G U65G | < 1e-05 s⁻¹
G40U G43U C70G | < 1e-05 s⁻¹

Variant | self-cleavage kobs at 2500 uM GlcN6P
C34G U46C | < 1e-05 s⁻¹
A14C G43U C61A | < 1e-05 s⁻¹
U47C A52U A64G | 3.84e-05 ± 1.6e-05 s⁻¹
C34U U45G C70A | < 1e-05 s⁻¹
G37A G44U G51U G66A | < 1e-05 s⁻¹
G13C A14G C68U | 8.88e-05 ± 2.7e-05 s⁻¹
C10G C11U G32A U45C | < 1e-05 s⁻¹
C11U G40A C71U | 0.000785 ± 0.00023 s⁻¹
C16A C34U G51U | < 1e-05 s⁻¹
G38U A42U U49A | < 1e-05 s⁻¹
A14G G32C C58A A64G | 9.27e-05 ± 3e-05 s⁻¹
G32C U55A | 4.27e-05 ± 1.5e-05 s⁻¹
G35C A36G G40U C70U | < 1e-05 s⁻¹
G7C C34A U57C G63C | < 1e-05 s⁻¹
U46G G63U C70A | < 1e-05 s⁻¹
G35A A52U U54A C61U C67G | < 1e-05 s⁻¹
A12U U49G G59C | < 1e-05 s⁻¹
G7U C16U G29A G60U | < 1e-05 s⁻¹

Variants of: B1
Assay: self-cleavage kobs at 10000 uM GlcN6P; higher = faster cleavage; RNA array
Conditions: with glucosamine-6-phosphate
Summary of the method: as §1

Variant | self-cleavage kobs at 10000 uM GlcN6P
G37A U56C | 0.000401 ± 5.4e-05 s⁻¹
A39U A53U C70G | 0.000276 ± 5e-05 s⁻¹
A14U G38C A42U | < 1e-05 s⁻¹
A53G C58U | 0.000105 ± 9.8e-06 s⁻¹
G7C A15C G32U C58U C61U | < 1e-05 s⁻¹
G9U U55C U56G C67U | < 1e-05 s⁻¹
U30C A39U U56G | 9.2e-05 ± 2.1e-05 s⁻¹
A12U G41A C68U | 6.86e-05 ± 1.4e-05 s⁻¹
A33C G38C A48U | < 1e-05 s⁻¹
U30A G43U | < 1e-05 s⁻¹
C34U U45G C70A | < 1e-05 s⁻¹
G32C U55A | 9.57e-05 ± 1.5e-05 s⁻¹
C34A U46A G51A | < 1e-05 s⁻¹
A14C U65C C71U | 4.99e-05 ± 2.1e-05 s⁻¹
A6G C11A C34U C58U C68G | 0.000295 ± 0.0001 s⁻¹
A15G C50G C68A | 7.87e-05 ± 1.6e-05 s⁻¹
C16A G35C A39U | < 1e-05 s⁻¹
C16G A33G C58G | < 1e-05 s⁻¹
U31A U46G U56G | 0.00127 ± 0.00022 s⁻¹
A39C G43C C50A | < 1e-05 s⁻¹
A14G U56C U69C | 0.000368 ± 9.1e-05 s⁻¹

Variant | self-cleavage kobs at 10000 uM GlcN6P
A12U G44U G51A | < 1e-05 s⁻¹
C10U C34U A48C | < 1e-05 s⁻¹
C11U G38U A42G | < 1e-05 s⁻¹
G35C U45A C58G | < 1e-05 s⁻¹
A36G A64G C70G | < 1e-05 s⁻¹
G13A G44C C67A | 9.29e-05 ± 1.9e-05 s⁻¹
C8U U54A U55A C67G | 0.000463 ± 0.00023 s⁻¹
U47C U65G C71U | 0.00338 ± 0.00055 s⁻¹
A14C G32U U65G | 0.000125 ± 3e-05 s⁻¹
U30A C34G G43U C61U G63U | < 1e-05 s⁻¹
A12G C16G C34G U55G | < 1e-05 s⁻¹
G13A C34G A52C | < 1e-05 s⁻¹
A12C A14G U47A A53G C58U | 3.29e-05 ± 1.6e-05 s⁻¹
G38U A53U | < 1e-05 s⁻¹
G44U U57G G66A C70G | < 1e-05 s⁻¹
U54A A64C | 0.000157 ± 2.8e-05 s⁻¹
U45A U46C C67G | 0.000673 ± 0.00013 s⁻¹
G32U U49G A64G | 0.000122 ± 2.8e-05 s⁻¹
G7A C11U C61U U65G C68A | 0.000318 ± 0.0001 s⁻¹
G37A G51U C68G | < 1e-05 s⁻¹
